Experimental data published in patent publication US12622945B2, “Hard tissue therapeutics” (OrthoTrophix, Inc., priority 2020, dated 2026).
Where no end group is shown, it is not given here.

Assays:
[1] = system: subjects with knee OA; settings: cited from earlier work
[2] = biological target: T1, integrin αvβ3 (Homo sapiens, UniProt P05106+P06756); assay: Competition ELISA with biotinylated RGD-Knottin, integrin αvβ3; type: binding
T1 construct: purchased R&D Systems
Procedure: All integrins used in this study contained the human sequence.
The binding assay was conducted as a competition ELISA using biotinylated Knottin and unlabeled peptides.
Methods were carried out as follows, as described by Bernhagen 2017.
Incubation and washing buffers were prepared using standard protocols. Recombinant human integrins were purchased from R&D Systems (Minneapolis, U.S.A.). Strep-HRP (Streptavidin-Horseradish Peroxidase conjugate, Southern-Biotech, Birmingham, U.S.A.), and rabbit anti-mouse-HRP (Southern-Biotech, Birmingham, U.S.A.) were diluted 1:200-1:1000 for ELISA experiments.
All integrins were dissolved according to manufacturer's protocol and stored in 25 μL aliquots of 100 μg/mL in PBS. For coating of one 96 well plate, 2 aliquots were thawed and dissolved in 9.95 mL of cold coating buffer for a 0.5 μg/mL solution.
After coating, the plates were subsequently sealed and stored at 4° C. overnight. […]
The following washing and incubation steps were performed according to manuscript. […] Peptides, whose integrin binding strength were to be determined, were mixed in 12 different concentrations (each 3-fold dilutions) with a fixed concentration of RGD-Knottin (both in PBS, 15 min, room temperature), followed by incubation of the plates with peptide/RGD-Knottin solutions.
Substrate buffer incubation and absorbance measurements were identical to that for binding ELISA. […]

[3] = biological target: T2, recombinant human integrin α1β1 (human, UniProt P56199 29-1141; P05556 21-728); assay: competition ELISA with biotinylated RGD-Knottin on coated integrin
T2 construct: Bought from R&D Systems

[4] = biological target: T3, recombinant human integrin αvβ5 (human, UniProt P06756 31-992; P18084 24-719); assay: as above
T3 construct: Bought from R&D Systems

[5] = biological target: T4, recombinant human integrin αvβ6 (human, UniProt P06756 31-992; P18564 22-707); assay: as above
T4 construct: Bought from R&D Systems

[6] = biological target: T5, recombinant human integrin αvβ8 (human, UniProt P06756 31-992; P26012 43-684); assay: as above
T5 construct: Bought from R&D Systems

[7] = biological target: T6, recombinant human integrin αvβ1 (human, UniProt P06756 31-992; P05556 21-728); assay: as above
T6 construct: Bought from R&D Systems

[8] = biological target: T7, recombinant human integrin α2β1 (human, UniProt P17301 30-1132; P05556 21-728); assay: as above
T7 construct: Bought from R&D Systems

[9] = biological target: T2, recombinant human integrin α1β1; assay: competition ELISA with Knottin; reference integrin αvβ3
[10] = biological target: T4, recombinant human integrin αvβ6; assay: as above
[11] = biological target: T5, recombinant human integrin αvβ8; assay: as above
[12] = biological target: T6, recombinant human integrin αvβ1; assay: as above
[13] = biological target: T7, recombinant human integrin α2β1; assay: as above
[14] = biological target: T8, recombinant human integrin α5β1 (human, UniProt P08648 42-995; P05556 21-728); assay: binding study with Knottin; reference integrin αvβ3
T8 construct: Bought from R&D Systems; Named only for the initial screening

[15] = biological target: T9, recombinant human integrin α9β1 (human, UniProt Q13797 30-981; P05556 21-728, limits assumed); assay: as above
T9 construct: Bought from R&D Systems; Named only for the initial screening

[16] = biological target: T10, recombinant human integrin α10β1 (human, UniProt O75578 23-1122; P05556 21-728, limits assumed); assay: as above
T10 construct: Bought from R&D Systems; Named only for the initial screening

[17] = biological target: T11, recombinant human integrin α4β1 (human, UniProt P13612 34-970; P05556 21-728, limits assumed); assay: as above
T11 construct: Bought from R&D Systems; Named only for the initial screening

[18] = biological target: T12, recombinant human integrin α3β1 (human, UniProt P26006 33-991; P05556 21-728); assay: as above
T12 construct: Bought from R&D Systems; Named only for the initial screening

[19] = biological target: T13, recombinant human integrin α6β1 (human, UniProt P23229 24-1011; P05556 21-728, limits assumed); assay: as above
T13 construct: Bought from R&D Systems; Named only for the initial screening

[20] = biological target: T14, recombinant human integrin αvβ3 (human, UniProt P06756 31-992; P05106 27-718); assay: competition ELISA; coated integrin, biotinylated RGD-Knottin as competitor (FIG. 4)
T14 construct: Bought from R&D Systems

O=P(O)(O)C(O)(Cc1cccnc1)P(=O)(O)O [risedronate]
effects on pain ([1]; n=2483, Bingham 2006): favoring placebo over active drug

N#Cc1c(N(CC(=O)[O-])CC(=O)[O-])sc(C(=O)[O-])c1CC(=O)[O-].[Sr+2].[Sr+2] [strontium ranelate]
risk of myocardial infarction ([1]; in vivo): increase the risk of myocardial infarction

GFQDSLDSNRQDPGTDPEKGIDF-NH2 [SEQ ID No: 15]
binding affinity (IC50) of the peptide and integrin αvβ3 ([2]; peptide concentration giving 50% inhibition of biotinylated knottin binding, triplicate): no binding affinity within the limits of the binding assay | IC50 ([2]; read-out: binding affinity (IC50) of the peptide and integrin αvβ3): > 3.94 mM

B1: scrambled peptide of SEQ ID No: 15 (peptide)
peptide: GFQDSLDSNRQDPGTDPEKGIDF-NH2
notes: Synthetic, made on a Rink-amide resin; also called scramble peptide
binding result [3]: no binding | binding result [4]: no binding | binding result [5]: no binding | binding result [6]: no binding | binding result [7]: no binding | binding result [8]: no binding

PDLQERGDNDISPFSGDGQPFKD-NH2 [peptide of SEQ ID No: 12 (canine orthologue of TPX-100)]
fold by which the binding affinity to αvβ3 is higher than to this integrin [9]: ≥ 300 times | fold by which the binding affinity to αvβ3 is higher than to this integrin [10]: ≥ 300 times | fold by which the binding affinity to αvβ3 is higher than to this integrin [11]: ≥ 300 times | fold by which the binding affinity to αvβ3 is higher than to this integrin [12]: ≥ 300 times | fold by which the binding affinity to αvβ3 is higher than to this integrin [13]: ≥ 300 times | fold by which the binding affinity to αvβ3 is higher than to this integrin [14]: ≥ 300 times | fold by which the binding affinity to αvβ3 is higher than to this integrin [15]: ≥ 300 times | fold by which the binding affinity to αvβ3 is higher than to this integrin [16]: ≥ 300 times | fold by which the binding affinity to αvβ3 is higher than to this integrin [17]: ≥ 300 times | fold by which the binding affinity to αvβ3 is higher than to this integrin [18]: ≥ 300 times | fold by which the binding affinity to αvβ3 is higher than to this integrin [19]: ≥ 300 times | IC50 [20]: ~23 µg/mL
